Results published in US20190233522A1 (Genmab, published 2019).
Each block holds one binder with its values, some of them ahead of it.

Columns and labels:
AXL [1] = target: T1, AXL (human, UniProt P30530 26-447, limits assumed); test: not described
T1 construct: neither the species nor the construct used is stated there; also called human AXL protein; UFO

AXL [2] = target: T1, AXL; test: competition with Gas6; assay not described

T1 sequence (P30530 26-447 limits assumed): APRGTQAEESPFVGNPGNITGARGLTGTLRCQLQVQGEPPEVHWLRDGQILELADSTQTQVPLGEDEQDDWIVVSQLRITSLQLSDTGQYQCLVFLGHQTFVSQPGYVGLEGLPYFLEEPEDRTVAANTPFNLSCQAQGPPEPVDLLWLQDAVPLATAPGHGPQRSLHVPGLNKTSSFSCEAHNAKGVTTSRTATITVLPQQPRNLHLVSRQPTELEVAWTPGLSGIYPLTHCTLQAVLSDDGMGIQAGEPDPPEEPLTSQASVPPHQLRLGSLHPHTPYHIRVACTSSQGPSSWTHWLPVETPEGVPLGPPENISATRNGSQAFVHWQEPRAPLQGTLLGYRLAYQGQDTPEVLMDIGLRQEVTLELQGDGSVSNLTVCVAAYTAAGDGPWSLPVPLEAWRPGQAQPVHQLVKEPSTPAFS

B2: IgG1-AXL-107-vcMMAE (antibody, V domains shown)
VH: EVQLLESGGGLVQPGGSLRLSCAASGFTFSSYAMNWVRQAPGKGLEWVSTTSGSGASTYYADSVKGRFTISRDNSKNTLYLQMNSLRAEDTAVYYCAKIWIAFDIWGQGTMVTVSS
VL: not shown
notes: also called HuMax-AXL-ADC; IgG1-1021-107-MMAE
binding result (AXL [1]): binds

B4: IgG1-AXL-061 (antibody, V domains shown)
VH: QVQLVQSGAEVKKPGASVKVSCKASGYAFTGYGISWVRQAPGQGLEWIGWISAYNGNTNYVQNLQDRVTMTTDTSTSTAYMELRSLRSDDTAVYYCARDHISMLRGIIIRNYWGQGTLVTVSS
VL: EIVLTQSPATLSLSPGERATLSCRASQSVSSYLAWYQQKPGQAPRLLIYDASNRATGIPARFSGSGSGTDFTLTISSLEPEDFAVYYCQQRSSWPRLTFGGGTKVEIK
notes: IgG1 by name; Unconjugated antibody
binding result (AXL [2]): binds

The remaining lines, values ahead:

binding result (AXL [1]): binds
B1: IgG1-AXL-148-vcMMAE (antibody, V domains shown)
VH: EVQLLESGGGLVQPGGSLRLSCAASGFTFSSYAMTWVRQAPGKGLEWVSAISISGGSTFYADSVKGRFTISRDNSKNTLYLQMNSLRAEDTAVYYCRGYSGYVYDAFDFWGQGTMVTVSS
VL: DIQMTQSPSSLSASVGDRVTITCRASQGISNWLAWYQQKPEKAPKSLIYAASSLQSGVPSRFSGSGSGTDFTLTISSLQPEDFATYYCQQYNSYPLTFGGGTKVEIK
modifications: vcMMAE alkylated to cysteines of the reduced antibody (positions not given)
notes: Antibody-drug conjugate of antibody 148 with vcMMAE; IgG1 by name; also called IgG1-1021-148-MMAE; IgG1-AXL-148-MMAE

binding result (AXL [1]): binds
B3: IgG1-AXL-061-vcMMAE (antibody, V domains shown)
VH: B4 VH
VL: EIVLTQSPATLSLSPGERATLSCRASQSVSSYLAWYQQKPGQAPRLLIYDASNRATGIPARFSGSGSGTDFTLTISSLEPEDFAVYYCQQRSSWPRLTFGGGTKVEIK
modifications: vcMMAE alkylated to cysteines of the reduced antibody (positions not given)
notes: Antibody-drug conjugate of antibody 061 with vcMMAE; IgG1 by name
